Patent publication US20250276092A1 (Regeneron, published 2025)

B1: REGN17544 (antibody, V domains shown)
VH: EVQLVESGGGLVQPGGSLRLSCAASGFTFGSYGMAWVRQAPGKGLEWVSAISGSGDYTNYADSVKRRFTISRDNSKNTLYLQMSSLRAEDTAVYYCAKEKTGTTGYLYSGMDVWGQGTTVTVSS
VL: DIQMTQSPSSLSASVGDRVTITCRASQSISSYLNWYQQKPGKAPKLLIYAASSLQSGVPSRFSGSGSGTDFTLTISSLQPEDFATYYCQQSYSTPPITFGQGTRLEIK
B2: REGN17288 (antibody, V domains shown)
VH: QLQLQESGPGLVRPSETLSLTCSVSGASMNTNNYYWGWIRQPPGKGLEWIGSGYYNGNTYYNPSLKSRVTISVDTSKNQFSLKLNSVTAADTAVYYCARQTPPRIIGSPNIWGQGTMVTVSS
VL: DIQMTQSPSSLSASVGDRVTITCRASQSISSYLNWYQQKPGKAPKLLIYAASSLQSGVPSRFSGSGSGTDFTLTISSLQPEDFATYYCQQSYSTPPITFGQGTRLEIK
B3: REGN16334 (bispecific antibody, human IgG4 S228P, kappa)
heavy 1: QLQLQESGPGLVRPSETLSLTCSVSGASMNTNNYYWGWIRQPPGKGLEWIGSGYYNGNTYYNPSLKSRVTISVDTSKNQFSLKLNSVTAADTAVYYCARQTPPRIIGSPNIWGQGTMVTVSSASTKGPSVFPLAPCSRSTSESTAALGCLVKDYFPEPVTVSWNSGALTSGVHTFPAVLQSSGLYSLSSVVTVPSSSLGTKTYTCNVDHKPSNTKVDKRVESKYGPPCPPCPAPGGGGPSVFLFPPKPKDTLMISRTPEVTCVVVDVSQEDPEVQFNWYVDGVEVHNAKTKPREEQFNSTYRVVSVLTVLHQDWLNGKEYKCKVSNKGLPSSIEKTISKAKGQPREPQVYTLPPSQEEMTKNQVSLTCLVKGFYPSDIAVEWESNGQPENNYKTTPPVLDSDGSFFLYSRLTVDKSRWQEGNVFSCSVMHEALHNHYTQKSLSLSLGK
heavy 2: EVQLVESGGGLVQPGGSLRLSCAASGFTFGSYGMAWVRQAPGKGLEWVSAISGSGDYTNYADSVKRRFTISRDNSKNTLYLQMSSLRAEDTAVYYCAKEKTGTTGYLYSGMDVWGQGTTVTVSSASTKGPSVFPLAPCSRSTSESTAALGCLVKDYFPEPVTVSWNSGALTSGVHTFPAVLQSSGLYSLSSVVTVPSSSLGTKTYTCNVDHKPSNTKVDKRVESKYGPPCPPCPAPGGGGPSVFLFPPKPKDTLMISRTPEVTCVVVDVSQEDPEVQFNWYVDGVEVHNAKTKPREEQFNSTYRVVSVLTVLHQDWLNGKEYKCKVSNKGLPSSIEKTISKAKGQPREPQVYTLPPSQEEMTKNQVSLTCLVKGFYPSDIAVEWESNGQPENNYKTTPPVLDSDGSFFLYSRLTVDKSRWQEGNVFSCSVMHEALHNRFTQKSLSLSPGK
light: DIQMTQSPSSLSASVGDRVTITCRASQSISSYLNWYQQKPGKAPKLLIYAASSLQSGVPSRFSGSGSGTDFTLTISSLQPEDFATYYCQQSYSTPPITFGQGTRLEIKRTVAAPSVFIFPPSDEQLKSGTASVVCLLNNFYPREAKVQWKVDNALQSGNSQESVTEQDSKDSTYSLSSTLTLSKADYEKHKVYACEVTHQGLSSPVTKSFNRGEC
notes: also called REGN16634 [sic]
B4: REGN20484 (bispecific antibody, human IgG4 S228P, kappa)
heavy 1: EVQLVESGGGLVQPGGSLRLSCAASGFTFGSYGMAWVRQAPGKGLEWVSAISGSGDYTNYADSVKRRFTISRDNSKNTLYLQMSSLRAEDTAVYYCAKEKTGTTGYLYSGMDVWGQGTTVTVSSASTKGPSVFPLAPCSRSTSESTAALGCLVKDYFPEPVTVSWNSGALTSGVHTFPAVLQSSGLYSLSSVVTVPSSSLGTKTYTCNVDHKPSNTKVDKRVESKYGPPCPPCPAPGGGGPSVFLFPPKPKDTLMISRTPEVTCVVVDVSQEDPEVQFNWYVDGVEVHNAKTKPREEQFNSTYRVVSVLTVLHQDWLNGKEYKCKVSNKGLPSSIEKTISKAKGQPREPQVYTLPPSQEEMTKNQVSLTCLVKGFYPSDIAVEWESNGQPENNYKTTPPVLDSDGSFFLYSRLTVDKSRWQEGNVFSCSVMHEALHNHYTQKSLSLSLGK
heavy 2: EVQLVESGGGLVQPGGSLRLSCAASGFTFSSYAMNWVRQAPGKGLEWVSIISGTIGKTYYADSVKGRFTISRDNSKNTLYLQMNSLRGEDTAVYYCAKDTERDITGSPFDYWGQGTLVTVSSASTKGPSVFPLAPCSRSTSESTAALGCLVKDYFPEPVTVSWNSGALTSGVHTFPAVLQSSGLYSLSSVVTVPSSSLGTKTYTCNVDHKPSNTKVDKRVESKYGPPCPPCPAPGGGGPSVFLFPPKPKDTLMISRTPEVTCVVVDVSQEDPEVQFNWYVDGVEVHNAKTKPREEQFNSTYRVVSVLTVLHQDWLNGKEYKCKVSNKGLPSSIEKTISKAKGQPREPQVYTLPPSQEEMTKNQVSLTCLVKGFYPSDIAVEWESNGQPENNYKTTPPVLDSDGSFFLYSRLTVDKSRWQEGNVFSCSVMHEALHNRFTQKSLSLSPGK
light: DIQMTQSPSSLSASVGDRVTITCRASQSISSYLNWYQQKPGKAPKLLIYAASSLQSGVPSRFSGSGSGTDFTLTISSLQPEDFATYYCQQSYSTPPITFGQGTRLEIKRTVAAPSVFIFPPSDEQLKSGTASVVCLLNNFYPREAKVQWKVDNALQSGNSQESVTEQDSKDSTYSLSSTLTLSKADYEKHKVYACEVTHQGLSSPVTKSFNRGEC
B5: REGN17289 (antibody, V domains shown)
VH: EVQLVESGGGLVQPGGSLRLSCAASGFTFSSYAMNWVRQAPGKGLEWVSIISGTIGKTYYADSVKGRFTISRDNSKNTLYLQMNSLRGEDTAVYYCAKDTERDITGSPFDYWGQGTLVTVSS
VL: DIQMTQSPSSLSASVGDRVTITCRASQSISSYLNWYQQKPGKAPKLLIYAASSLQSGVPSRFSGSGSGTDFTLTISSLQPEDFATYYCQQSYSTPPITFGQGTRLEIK

Experiments:
[1] = biological target: T1, human CD40 expressed on cells (human, UniProt P25942 21-277); assay: cell-based or functional assay
[2] = biological target: T1, human CD40 expressed on cells; assay: cell-based or functional assay; remark: listed apart in the source
[3] = biological target: T1, human CD40 expressed on cells; assay: cell-based or functional assay; remark: listed apart in the source
[4] = biological target: T2, human CD40 extracellular domain expressed with a C-terminal myc-myc-hexahistidine tag (human); assay: ELISA, blocks 40 nM hCD40-mmH binding to coated 9His-hCD40L
T2 construct: also called hCD40-MMH; hCD40-mmH
Protocol: In the blocking assay, 9His-hCD40L was passively absorbed at a concentration of 5 μg/mL in PBS on a 96-well microtiter plate overnight at 4° C. […] In a separate 96-well microtiter plate, a fixed amount of 40 nM hCD40-mmH was pre-mixed with one of the following antibodies, at concentrations ranging from 977 pM to 1 μM in PBS+0.5% BSA: (1) anti-CD40×CD40 bispecific antibodies (REGN16431, REGN16432, REGN16634, and REGN16335); (2) parental anti-CD40 mAbs (bivalent antibodies comprising 2 fragment antigen-binding [Fab] arms identical to one of anti-CD40 Fab of anti-CD40×CD40 antibodies); (3) anti-CD40×Irrelevant antibodies (bivalent antibodies that incorporate one Fab arm identical to one of anti-CD40 Fab of anti-CD40×CD40 antibodies and another Fab arm specific to an irrelevant antigen); and (4) human IgG4 with Fc mutation isotype control antibodies (REGN7540 and REGN4513). The fixed concentration of hCD40-mmH was selected to be near the concentration (EC₅₀ value) that generated 50% of the maximal binding to the plate-adhered 9His-hCD40L. After one-hour incubation, the antibody-antigen complexes were transferred to the microtiter plate coated with 9His-hCD40L. After one hour incubation at room temperature, the plates were washed, and plate-bound hCD40-mmH protein was detected with horseradish peroxidase (HRP) conjugated goat anti-c-Myc antibody. The plates were then developed using TMB substrate solution (BD Biosciences) according to the manufacturer's recommended procedure and the absorbance at 450 nm (OD₄₅₀) was measured on a SpectraMax i3× plate reader.
Binding data were analyzed using a sigmoidal (four-parameter logistic) dose-response model with GraphPad Prism™ software. […] The percent blocking of tested antibodies at the highest tested concentration ([…]) was calculated based on the formula shown below: […]

[5] = biological target: T1, human CD40 expressed on cells; assay: cell-based or functional assay; remark: listed apart in the source
[6] = biological target: T1, human CD40 expressed on cells; assay: cell-based or functional assay; remark: listed apart in the source
[7] = biological target: T1, human CD40 expressed on cells; assay: cell-based or functional assay; remark: listed apart in the source
[8] = biological target: T1, human CD40 expressed on cells; assay: cell-based or functional assay; remark: listed apart in the source
[9] = biological target: T1, human CD40 expressed on cells; assay: cell-based or functional assay; remark: listed apart in the source
[10] = biological target: T1, human CD40 expressed on cells; assay: cell-based or functional assay; remark: listed apart in the source

T1 sequence (P25942 21-277): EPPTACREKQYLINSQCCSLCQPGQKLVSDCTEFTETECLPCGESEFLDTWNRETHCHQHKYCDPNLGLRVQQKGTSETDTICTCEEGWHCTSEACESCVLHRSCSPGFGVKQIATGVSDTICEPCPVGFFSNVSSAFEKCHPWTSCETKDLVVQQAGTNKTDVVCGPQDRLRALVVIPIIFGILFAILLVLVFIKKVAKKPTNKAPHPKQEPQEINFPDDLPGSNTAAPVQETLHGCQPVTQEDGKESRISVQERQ
T2 sequence (chain, as listed by the source limits assumed): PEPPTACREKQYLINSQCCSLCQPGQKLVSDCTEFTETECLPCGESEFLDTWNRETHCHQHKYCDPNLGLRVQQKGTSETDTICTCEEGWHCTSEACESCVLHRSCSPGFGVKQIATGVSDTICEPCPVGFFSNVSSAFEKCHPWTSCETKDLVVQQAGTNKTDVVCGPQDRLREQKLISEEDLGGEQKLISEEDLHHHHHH

Binder	IC50, NFkB-luc Ramos, 500 pM hCD40L [1] [M]	Max % activation, NFkB-luc Ramos, no ligand [1] [%]	Max % inhibition, NFkB-luc Ramos, 500 pM hCD40L [1] [%]	IC50, NFkB-luc Raji, 900 pM hCD40L [2] [M]	Max % activation, NFkB-luc Raji, no ligand [2] [%]	Max % inhibition, NFkB-luc Raji, 900 pM hCD40L [2] [%]	IC50, NFkB-luc THP-1, 10 nM hCD40L [3] [pM]	Max % activation, NFkB-luc THP-1, no ligand [3] [%]	Max % inhibition, NFkB-luc THP-1, 10 nM hCD40L [3] [%]	% Blocking at highest mAb concentration [4] [%]	% max blockade relative to no mAb, IL-6, assay #2, donor 1 [8] [%]	% max blockade relative to no mAb, IL-6, assay #2, donor 2 [8] [%]	% max blockade relative to no mAb, IL-10, assay #2, donor 1 [9] [%]	% max blockade relative to no mAb, IL-10, assay #2, donor 2 [9] [%]	% max blockade relative to no mAb, TNFa, assay #2, donor 1 [10] [%]	% max blockade relative to no mAb, TNFa, assay #2, donor 2 [10] [%]	other results
B1	1.89e-10	10	77	1.35e-10	11	81	1130	4	96	91							
B2	4.07e-11	6	88	4.28e-11	14	90	334	0	98	94							
B3	6.93e-11	6	91	5.76e-11	13	113	553	1	98	98	88.9	89.2	87.7	89.9	62.8	51.1	% max blockade relative to no mAb, IL-6, B cells, donor 1 [5]: 84.5%; % max blockade relative to no mAb, IL-6, B cells, donor 2 [5]: 92%; % max blockade relative to no mAb, IL-6, B cells, donor 3 [5]: 92%; % max blockade relative to no mAb, IL-10, B cells, donor 1 [6]: 74.2%; % max blockade relative to no mAb, IL-10, B cells, donor 2 [6]: 91.4%; % max blockade relative to no mAb, IL-10, B cells, donor 3 [6]: 92.4%; % max blockade relative to no mAb, TNFa, B cells, donor 1 [7]: 44%; % max blockade relative to no mAb, TNFa, B cells, donor 2 [7]: 63.5%; % max blockade relative to no mAb, TNFa, B cells, donor 3 [7]: 68.5%
B4											89	88.1	87.1	90.9	61.9	52.3	
B5		4	-133	2.72e-11	10	55		1	-92								EC50 in the presence of CD40L (potentiation), NFkB-luc Ramos, 500 pM hCD40L [1]: 7.51e-12 M; EC50 in the presence of CD40L (potentiation), NFkB-luc THP-1, 10 nM hCD40L [3]: 16 pM
